For experiment [1], the target named is HECW2, endogenous in HEK293T, Q9P2P5. Nature of the experiment: co-immunoprecipitation of ALFA-TXNIP, label-free quantitative interactome (mass spectrometry). As to conditions: chain shown with the change, immunoprecipitated from HEK293T cells, n = 3, read off a plot; for response (normalized abundance): abundances normalized to unspecific background binding to empty beads, scatter plot.

Experiment [2] has as its target T1, HECW1, endogenous in HEK293T, Q76N89.
T1 chain: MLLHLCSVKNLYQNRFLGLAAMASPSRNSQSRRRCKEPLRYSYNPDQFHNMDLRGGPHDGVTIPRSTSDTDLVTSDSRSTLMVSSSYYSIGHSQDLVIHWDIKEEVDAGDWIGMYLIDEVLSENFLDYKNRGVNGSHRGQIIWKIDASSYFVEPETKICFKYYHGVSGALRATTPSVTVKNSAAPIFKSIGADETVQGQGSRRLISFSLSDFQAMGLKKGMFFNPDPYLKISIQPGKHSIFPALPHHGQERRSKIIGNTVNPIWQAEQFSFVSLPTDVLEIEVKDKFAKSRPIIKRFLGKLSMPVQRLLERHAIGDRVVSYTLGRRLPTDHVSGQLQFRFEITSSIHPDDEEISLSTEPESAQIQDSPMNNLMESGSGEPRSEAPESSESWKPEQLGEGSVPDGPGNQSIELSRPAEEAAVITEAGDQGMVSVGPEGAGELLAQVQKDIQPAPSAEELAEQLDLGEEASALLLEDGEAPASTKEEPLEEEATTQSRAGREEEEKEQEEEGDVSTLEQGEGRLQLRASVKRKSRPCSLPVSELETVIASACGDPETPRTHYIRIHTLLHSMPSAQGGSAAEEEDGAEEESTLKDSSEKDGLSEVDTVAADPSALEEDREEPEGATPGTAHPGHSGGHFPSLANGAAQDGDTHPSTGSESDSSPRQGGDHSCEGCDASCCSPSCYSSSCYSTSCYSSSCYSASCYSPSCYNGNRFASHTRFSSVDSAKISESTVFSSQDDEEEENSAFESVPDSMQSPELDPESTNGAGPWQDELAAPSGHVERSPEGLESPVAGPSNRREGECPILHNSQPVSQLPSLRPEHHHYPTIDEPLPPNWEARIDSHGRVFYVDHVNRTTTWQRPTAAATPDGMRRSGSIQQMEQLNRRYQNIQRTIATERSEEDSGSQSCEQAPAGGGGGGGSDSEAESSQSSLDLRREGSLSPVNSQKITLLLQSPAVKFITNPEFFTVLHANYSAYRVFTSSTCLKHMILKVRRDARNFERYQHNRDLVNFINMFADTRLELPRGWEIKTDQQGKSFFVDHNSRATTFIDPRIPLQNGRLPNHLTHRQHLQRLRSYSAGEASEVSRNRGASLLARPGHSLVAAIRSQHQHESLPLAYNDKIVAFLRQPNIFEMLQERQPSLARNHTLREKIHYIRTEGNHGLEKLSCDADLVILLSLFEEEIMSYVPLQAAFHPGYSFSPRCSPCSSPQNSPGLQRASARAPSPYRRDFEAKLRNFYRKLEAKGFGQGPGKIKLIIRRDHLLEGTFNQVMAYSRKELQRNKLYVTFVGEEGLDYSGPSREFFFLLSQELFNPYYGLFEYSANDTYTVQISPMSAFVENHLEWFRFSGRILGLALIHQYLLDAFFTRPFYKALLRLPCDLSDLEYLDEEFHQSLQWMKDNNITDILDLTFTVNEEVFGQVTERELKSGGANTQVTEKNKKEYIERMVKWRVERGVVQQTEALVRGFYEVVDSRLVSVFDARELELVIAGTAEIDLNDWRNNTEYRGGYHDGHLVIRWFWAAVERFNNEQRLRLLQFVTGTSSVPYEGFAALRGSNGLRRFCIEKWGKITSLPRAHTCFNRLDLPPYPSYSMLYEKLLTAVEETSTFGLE
Described as above. Conditions: chain shown with the change, immunoprecipitated from HEK293T cells, n = 3, read off a plot.

Sequence of HECW2, endogenous in HEK293T, Q9P2P5 (Q9P2P5 whole entry): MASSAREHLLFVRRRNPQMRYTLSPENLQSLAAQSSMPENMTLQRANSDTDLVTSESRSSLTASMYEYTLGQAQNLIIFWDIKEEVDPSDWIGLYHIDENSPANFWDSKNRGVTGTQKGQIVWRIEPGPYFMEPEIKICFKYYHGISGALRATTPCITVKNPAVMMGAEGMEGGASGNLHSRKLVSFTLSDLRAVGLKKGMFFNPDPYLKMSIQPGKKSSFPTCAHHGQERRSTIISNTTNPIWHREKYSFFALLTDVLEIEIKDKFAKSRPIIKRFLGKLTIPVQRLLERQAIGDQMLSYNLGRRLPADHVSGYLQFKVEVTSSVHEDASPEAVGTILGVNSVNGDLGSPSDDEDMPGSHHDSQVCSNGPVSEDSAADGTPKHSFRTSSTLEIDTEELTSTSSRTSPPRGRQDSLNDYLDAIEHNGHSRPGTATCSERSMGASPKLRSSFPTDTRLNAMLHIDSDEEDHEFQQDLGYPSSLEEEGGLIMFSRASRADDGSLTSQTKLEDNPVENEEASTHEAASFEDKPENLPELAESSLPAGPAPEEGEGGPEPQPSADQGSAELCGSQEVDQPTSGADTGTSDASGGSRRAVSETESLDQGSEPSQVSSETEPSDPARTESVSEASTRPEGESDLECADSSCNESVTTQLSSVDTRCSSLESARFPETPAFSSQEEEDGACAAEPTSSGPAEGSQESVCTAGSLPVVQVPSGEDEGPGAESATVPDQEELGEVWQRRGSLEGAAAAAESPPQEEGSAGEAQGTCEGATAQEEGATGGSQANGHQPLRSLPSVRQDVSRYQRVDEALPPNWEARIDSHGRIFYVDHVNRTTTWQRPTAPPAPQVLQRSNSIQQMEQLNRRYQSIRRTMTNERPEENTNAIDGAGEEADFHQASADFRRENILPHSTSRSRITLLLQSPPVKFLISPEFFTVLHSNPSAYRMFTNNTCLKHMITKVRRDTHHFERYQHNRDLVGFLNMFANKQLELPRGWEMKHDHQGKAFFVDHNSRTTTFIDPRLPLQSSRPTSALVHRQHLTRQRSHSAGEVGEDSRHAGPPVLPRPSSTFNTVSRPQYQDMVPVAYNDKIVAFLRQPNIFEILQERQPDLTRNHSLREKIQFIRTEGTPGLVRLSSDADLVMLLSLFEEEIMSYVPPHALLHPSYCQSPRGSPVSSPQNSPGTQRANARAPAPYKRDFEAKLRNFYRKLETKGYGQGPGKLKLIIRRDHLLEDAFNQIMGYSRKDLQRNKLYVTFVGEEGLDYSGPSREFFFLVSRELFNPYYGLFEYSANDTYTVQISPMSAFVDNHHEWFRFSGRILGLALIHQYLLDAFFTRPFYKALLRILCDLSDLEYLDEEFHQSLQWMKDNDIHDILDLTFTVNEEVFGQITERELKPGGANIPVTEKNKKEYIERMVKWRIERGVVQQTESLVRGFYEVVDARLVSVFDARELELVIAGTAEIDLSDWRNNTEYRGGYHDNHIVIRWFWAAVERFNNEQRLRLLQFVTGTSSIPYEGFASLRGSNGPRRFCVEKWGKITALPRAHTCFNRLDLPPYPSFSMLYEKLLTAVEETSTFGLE

B1: ALFA-tagged TXNIP (thioredoxin interacting protein), expressed in HEK293T, Q9H3M7 PPCY331AACA (protein)
chain: MVMFKKIKSFEVVFNDPEKVYGSGEKVAGRVIVEVCEVTRVKAVRILACGVAKVLWMQGSQQCKQTSEYLRYEDTLLLEDQPTGENEMVIMRPGNKYEYKFGFELPQGPLGTSFKGKYGCVDYWVKAFLDRPSQPTQETKKNFEVVDLVDVNTPDLMAPVSAKKEKKVSCMFIPDGRVSVSARIDRKGFCEGDEISIHADFENTCSRIVVPKAAIVARHTYLANGQTKVLTQKLSSVRGNHIISGTCASWRGKSLRVQKIRPSILGCNILRVEYSLLIYVSVPGSKKVILDLPLVIGSRSGLSSRTSSMASRTSSEMSWVDLNIPDTPEAAACAMDVIPEDHRLESPTTPLLDDMDGSQDSPIFMYAPEFKFMPPPTYTEVDPCILNNNVQ
Turning to B1, in experiment [1] (parent: est. 1.0e8), the response (normalized abundance) was 1.3e+06. The results for the other: log2 PPxY331/WT in experiment [1] and in experiment [2] were -4.1 log2 and -6.5 log2, respectively.

B2: ALFA-tagged TXNIP (thioredoxin interacting protein), expressed in HEK293T, Q9H3M7 PPCY331AACA; PPTY375AATA (protein)
chain: MVMFKKIKSFEVVFNDPEKVYGSGEKVAGRVIVEVCEVTRVKAVRILACGVAKVLWMQGSQQCKQTSEYLRYEDTLLLEDQPTGENEMVIMRPGNKYEYKFGFELPQGPLGTSFKGKYGCVDYWVKAFLDRPSQPTQETKKNFEVVDLVDVNTPDLMAPVSAKKEKKVSCMFIPDGRVSVSARIDRKGFCEGDEISIHADFENTCSRIVVPKAAIVARHTYLANGQTKVLTQKLSSVRGNHIISGTCASWRGKSLRVQKIRPSILGCNILRVEYSLLIYVSVPGSKKVILDLPLVIGSRSGLSSRTSSMASRTSSEMSWVDLNIPDTPEAAACAMDVIPEDHRLESPTTPLLDDMDGSQDSPIFMYAPEFKFMPAATATEVDPCILNNNVQ
As to B2, in experiment [1] (parent: est. 1.3e8), the response (normalized abundance) amounted to 80000. The other: log2 PPxY/WT in experiment [2] (volcano plot) is -6.6 log2.
